The text below walks through data of PMC11407943, “Cdc14 phosphatases use an intramolecular pseudosubstrate motif to stimulate and regulate catalysis” (The Journal of Biological Chemistry, 2024).

Data set [1] can be described thus: Steady-state kinetics of Cdc14 enzyme variants toward DiFMUP.
Procedure: B, initial velocities as a function of increasing DiFMUP concentration were measured under steady-state conditions for the indicated ScCdc14 variants. […] Data are average values from at least three independent measurements. Error bars are SDs. Lines are best fits for the Michaelis–Menten equation. C, to better visualize differences in KM, all Vmax values from data in panel A were normalized to 1. D, top: the general PTP-catalyzed reaction scheme with associated rate constants ([50]), where E is enzyme, S is phosphorylated substrate, P is dephosphorylated product, Pi is inorganic phosphate, and E-Pi is the covalent phosphoenzyme intermediate. For simplicity, the reverse catalytic steps are omitted and considered negligible under our experimental conditions. Bottom: definitions of kcat and KM for enzymes following the two step PTP reaction mechanism ([47]). E, a representative presteady-state reaction progress graph for reaction of the indicated ScCdc14 enzyme variants with 200 μM DiFMUP, measured in a stopped flow spectrofluorometer. Data were fit with Equation 1 (see Experimental procedures) to generate rates of the burst phase (kburst) of the reaction. F, kburst was plotted as a function of substrate concentration from presteady-state kinetic measurements with the substrate DiFMUP and the indicated ScCdc14 enzyme variants. Data are averages of three independent measurements and error bars are SDs. Data were fit in GraphPad Prism with Equation 2 (Experimental procedures).
D–E, steady-state kinetic analyses with hCdc14A enzyme variants toward DiFMUP as in Figure 2, B and C. […] In E, Vmax values from data in panel D were normalized to 1 to show differences in KM.
Data from velocity versus substrate concentration plots were fit with the Michaelis–Menten equation in GraphPad Prism (https://www.graphpad.com/) to determine steady-state kinetic parameters kcat and KM. For trans peptide stimulation assays, DiFMUP was used at a single concentration well above the measured KM for each enzyme.
The conditions of data set [2]: cited from earlier work.
Source text: To experimentally characterize the SLiCE motif mechanism, we expressed and purified several recombinant ScCdc14 enzyme variants (Figs. 2A and S2A).
Data set [3] in a line: Catalytic efficiency (kcat/KM) on pooled phosphopeptides by LC-MS. Particulars: 375 nM each pooled phosphopeptide, 30 °C, 10 to 40 min; for catalytic efficiency (kcat/KM) for high affinity substrates: enzyme 0.1–1 μM, at least four independent measurements.
Procedure: Cdc14 catalytic efficiencies toward a pooled set of phosphopeptide variants were measured by LC-MS exactly as described ([49]). […] Reactions were initiated by addition of Cdc14 enzymes (0.1–1 μM final concentration) in 200 μl Cdc14 reaction buffer and incubated at 30 °C for 10 to 40 min 60 μl aliquots were removed and mixed with an equal volume 5% formic acid at desired times to terminate the reactions. Peptides were desalted on C18 spin columns (Thermo Fisher Scientific) and dried by vacuum centrifugation prior to LC-MS analysis on an LTQ Orbitrap Velos mass spectrometer. Extracted ion chromatograms for each substrate and product peptide were generated and integrated using Skyline software ([65]) (https://skyline.ms/project/home/begin.view) and catalytic efficiency calculations from the data were performed as described ([28], [47]).
Data set [4] can be described thus: Presteady-state (stopped-flow) kinetics of Cdc14 enzyme variants with DiFMUP. The settings on record: 23 °C, 200 μM DiFMUP in representative ScCdc14 progress curve, compared to ScCdc14^1-449. The class given is biochemical. The procedure:
SLiCE motif is boxed in gray.
Presteady-state kinetic analysis was performed as described previously ([34]). Enzymes were exchanged into Cdc14 reaction buffer using a desalting column and flash-frozen in liquid nitrogen. Prior to use, aliquots were thawed and clarified at 16,000g for 5 min to remove any insoluble material and protein concentration was subsequently determined by Bradford assay. Presteady-state measurements were made by mixing enzyme and varying DiFMUP concentrations at 23 °C on an SFM-3000 stopped-flow instrument equipped with a MOS-200/M spectrophotometer (BioLogic) as described ([64]). The excitation wavelength was 390-nm and emission was selected using a 409-nm long pass filter (Semrock FF02-409/LP-25). A standard curve was generated by measuring the fluorescence of defined concentrations of the product DiFMU reconstituted in Cdc14 reaction buffer under identical conditions. Raw data were fit with Equation 1 in Prism:(1) Y=At+B(1−e^−bt)+C

Setting [5] is: DiFMUP, pH 7.5, 30 °C, S429 phosphosite mutant series, printed "(Fig. 6)" for ScCdc141-449.

B1: ScCdc14^S429E (protein, UniProt Q00684 1-551, looked up, variant S429E)
Tyrosine-protein phosphatase …: MRRSVYLDNTIEFLRGRVYLGAYDYTPEDTDELVFFTVEDAIFYNSFHLDFGPMNIGHLYRFAVIFHEILNDPENANKAVVFYSSASTRQRANAACMLCCYMILVQAWTPHQVLQPLAQVDPPFMPFRDAGYSNADFEITIQDVVYGVWRAKEKGLIDLHSFNLESYEKYEHVEFGDFNVLTPDFIAFASPQEDHPKGYLATKSSHLNQPFKSVLNFFANNNVQLVVRLNSHLYNKKHFEDIGIQHLDLIFEDGTCPDLSIVKNFVGAAETIIKRGGKIAVHCKAGLGRTGCLIGAHLIYTYGFTANECIGFLRFIRPGMVVGPQQHWLYLHQNDFREWKYTTRISLKPSEAIGGLYPLISLEEYRLQKKKLKDDKRVAQNNIEGELRDLTMTPPSNGHGALSARNSSQPSTANNGSNSFKSSAVPQTEPGQPRKGQNGSNTIEDINNNRNPTSHANRKVVIESNNSDDESMQDTNGTSNHYPKVSRKKNDISSASSSRMEDNEPSATNINNAADDTILRQLLPKNRRVTSGRRTTSAAGGIRKISGSIKK
In the case of B1, the kcat in data set [1] (setting [5]) amounted to 0.15 ± 0.01 s⁻¹.

B2: ScCdc14^1-374: catalytic domain alone lacking the SLiCE motif (protein)
chain: MRRSVYLDNTIEFLRGRVYLGAYDYTPEDTDELVFFTVEDAIFYNSFHLDFGPMNIGHLYRFAVIFHEILNDPENANKAVVFYSSASTRQRANAACMLCCYMILVQAWTPHQVLQPLAQVDPPFMPFRDAGYSNADFEITIQDVVYGVWRAKEKGLIDLHSFNLESYEKYEHVEFGDFNVLTPDFIAFASPQEDHPKGYLATKSSHLNQPFKSVLNFFANNNVQLVVRLNSHLYNKKHFEDIGIQHLDLIFEDGTCPDLSIVKNFVGAAETIIKRGGKIAVHCKAGLGRTGCLIGAHLIYTYGFTANECIGFLRFIRPGMVVGPQQHWLYLHQNDFREWKYTTRISLKPSEAIGGLYPLISLEEYRLQKKKLKD
modifications: left off: 6xHis, N-terminal, state not stated
In the case of B2, in data set [1] (DiFMUP, steady state), the “decrease in kcat compared to ScCdc14^1-449” value was found to be 16 fold.

B3: ScCdc14^1-449: truncation of S. cerevisiae Cdc14 that retains the SLiCE motif (protein)
chain: MRRSVYLDNTIEFLRGRVYLGAYDYTPEDTDELVFFTVEDAIFYNSFHLDFGPMNIGHLYRFAVIFHEILNDPENANKAVVFYSSASTRQRANAACMLCCYMILVQAWTPHQVLQPLAQVDPPFMPFRDAGYSNADFEITIQDVVYGVWRAKEKGLIDLHSFNLESYEKYEHVEFGDFNVLTPDFIAFASPQEDHPKGYLATKSSHLNQPFKSVLNFFANNNVQLVVRLNSHLYNKKHFEDIGIQHLDLIFEDGTCPDLSIVKNFVGAAETIIKRGGKIAVHCKAGLGRTGCLIGAHLIYTYGFTANECIGFLRFIRPGMVVGPQQHWLYLHQNDFREWKYTTRISLKPSEAIGGLYPLISLEEYRLQKKKLKDDKRVAQNNIEGELRDLTMTPPSNGHGALSARNSSQPSTANNGSNSFKSSAVPQTSPGQPRKGQNGSNTIEDINNN
modifications: left off: 6xHis, N-terminal, state not stated
As to B3, the kcat in data set [1] (setting [5]) is 1.71 ± 0.24 s⁻¹. Besides, the “activity compared with full-length ScCdc14” value in data set [2] is given as “indistinguishable from full-length ScCdc14”. Also, the “catalytic efficiency (kcat/KM) for high affinity substrates” value in data set [3] is listed as “indistinguishable”.

B4: ScCdc14^P433A/K435A: SLiCE motif point mutant generated in ScCdc14^1-449 (protein)
chain: MRRSVYLDNTIEFLRGRVYLGAYDYTPEDTDELVFFTVEDAIFYNSFHLDFGPMNIGHLYRFAVIFHEILNDPENANKAVVFYSSASTRQRANAACMLCCYMILVQAWTPHQVLQPLAQVDPPFMPFRDAGYSNADFEITIQDVVYGVWRAKEKGLIDLHSFNLESYEKYEHVEFGDFNVLTPDFIAFASPQEDHPKGYLATKSSHLNQPFKSVLNFFANNNVQLVVRLNSHLYNKKHFEDIGIQHLDLIFEDGTCPDLSIVKNFVGAAETIIKRGGKIAVHCKAGLGRTGCLIGAHLIYTYGFTANECIGFLRFIRPGMVVGPQQHWLYLHQNDFREWKYTTRISLKPSEAIGGLYPLISLEEYRLQKKKLKDDKRVAQNNIEGELRDLTMTPPSNGHGALSARNSSQPSTANNGSNSFKSSAVPQTSPGQARAGQNGSNTIEDINNN
modifications: left off: 6xHis, N-terminal, state not stated
For B4, the kcat in data set [1] (pH 7.5) came out at 0.27 ± 0.03 s⁻¹. The “postburst linear rate (primarily reflecting k3)” value in data set [4] is reported as “greatly reduced”. Further, in data set [3] (compared to ScCdc14^1-449), the “catalytic efficiency (kcat/KM) for low affinity substrates” value is “modest, but consistent and statistically significant, increase in catalytic efficiency”. Besides, the “catalytic efficiency (kcat/KM) for high affinity substrates” value in data set [3] is recorded as “indistinguishable”.
